Test results: patent publication US20180215825A1 (BEIGENE, published 2018)
Read-outs that look alike come from different tables or passages of the source. Blank lines part the entries; values can stand above or below the binder they belong to.

Experiments:
[1] = target: T1, human PD-L1, full length, expressed on cells (human, UniProt Q9NZQ7 19-290); assay: cell-based or functional assay
[2] = target: T1, human PD-L1, full length, expressed on …; assay: FACS competition with biotin-CD80/Fc on HEK293/PD-L1 cells
[3] = target: T1, human PD-L1, full length, expressed on …; assay: FACS competition with biotin-PD-1/Fc on HEK293/PD-L1 cells
human PD-L1-ECD/His [4] = target: T2, human PD-L1-ECD/His (human, UniProt Q9NZQ7 19-238); assay: SPR (BIAcore T-200), human PD-L1/His on CM5 chip, Fab injected
T2 construct: Expressed in 293-F cells; also called PD-L1/His; human PD-L1/His
T2 sequence (Q9NZQ7 19-238): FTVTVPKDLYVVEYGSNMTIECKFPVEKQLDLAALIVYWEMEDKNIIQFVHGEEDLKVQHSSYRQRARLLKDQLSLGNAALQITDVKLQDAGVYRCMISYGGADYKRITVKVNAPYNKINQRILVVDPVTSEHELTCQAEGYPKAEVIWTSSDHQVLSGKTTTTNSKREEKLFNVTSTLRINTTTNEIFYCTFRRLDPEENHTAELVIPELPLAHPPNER
Procedure: (§1) For affinity determinations of anti-PD-L1 Fabs, SPR assays were performed using BIAcore™ T-200 (GE Life Sciences). Briefly, human PD-L1/His was coupled to an activated CM5 biosensor chip (Cat. No. BR100530, GE Life Sciences) to achieve approximately 100-200 response units (RU), followed by blocking un-reacted groups with 1M ethanolamine. A serial dilutions of 0.12 nM to 90 nM Fab samples were injected, mixed into the SPR running buffer (10 mM HEPES, 150 mM NaCl, 0.05% Tween20, pH7.4) at 30 μL/minute, and binding responses on human PD-L1/His were calculated by substracting of RU from a blank flow-cell. Association rates (kₒₙ) and dissociation rates (koff) were calculated using the one-to-one Langmuir binding model (BIA Evaluation Software, GE Life Sciences). The equilibrium dissociation constant (Kd) was calculated as the ratio koff/kₒₙ.
(§2) For affinity determinations of anti-PD-L1 Fabs, SPR assays were conducted using BIAcore™ T-200 instrument (GE Life Sciences, Shanghai, China) as described earlier. Association rates (kₒₙ) and dissociation rates (koff) were calculated using the one-to-one Langmuir binding model (BIA Evaluation Software, GE Life Sciences). The equilibrium dissociation constant (Kd) was calculated as the ratio koff/kₒₙ.

[5] = target: T1, human PD-L1, full length, expressed on …; assay: cell-based or functional assay; remark: listed apart in the source
human PD-L1-ECD/His [6] = target: T2, human PD-L1-ECD/His; assay: SPR (BIAcore T-200), human PD-L1, Fab injected
Procedure: as §1, §2

[7] = target: T3, cynomolgus monkey PD-L1/His (cynomolgus monkey (Macaca fascicularis), UniProt G7PSE7 19-238); assay: SPR (BIAcore T-200), monkey PD-L1, Fab injected
T3 construct: extracellular domain; Said to be expressed and purified in a similar way to the human PD-L1/His (PD-L1-ECD/His); not shown: His tag
T3 sequence (G7PSE7 entry or part of it): as the sequence (Q9NZQ7 19-238) above, with A33T, A34S, S62N, R68Q, Q82R, F173L, T185A, T192I, H215L counted along it

[8] = target: T1, human PD-L1, full length, expressed on …; assay: FACS competition with biotin-CD80/Fc on HEK293/PD-L1 cells; remark: listed apart in the source
[9] = target: T1, human PD-L1, full length, expressed on …; assay: FACS competition with biotin-PD-1/Fc on HEK293/PD-L1 cells; remark: listed apart in the source
[10] = target: T1, human PD-L1, full length, expressed on …; assay: cell-based or functional assay; remark: listed apart in the source
[11] = target: T1, human PD-L1, full length, expressed on …; assay: FACS competition with biotin-PD-1/Fc on HEK293/PD-L1 cells; remark: listed apart in the source
Source text: Using this method, we evaluated functional strength of anti-PD-L1 mAbs.

[12] = target: T1, human PD-L1, full length, expressed on …; assay: FACS competition with biotin-CD80/Fc on HEK293/PD-L1 cells; remark: listed apart in the source
human PD-L1-ECD/His [13] = target: T2, human PD-L1-ECD/His; assay: SPR (BIAcore T-200), human PD-L1/His on CM5 chip, Fab injected; remark: listed apart in the source
Procedure: as §1

[14] = target: T1, human PD-L1, full length, expressed on …; assay: cell-based or functional assay; remark: listed apart in the source
[15] = target: T1, human PD-L1, full length, expressed on …; assay: cell-based or functional assay; remark: listed apart in the source
human PD-L1-ECD/His [16] = target: T2, human PD-L1-ECD/His; assay: ELISA on coated PD-L1/His
Procedure: (§3) Briefly, 50-200 nanograms of PD-L1/His were diluted in 50 microliters of PBS and coated in each well of 96-well ELISA plates (JinCanHua, Shenzhen, China). After blocking with 3% bovine serum albumin in TBST (20 mM Tris, 150 mM NaCl, 0.05% Tween20, pH7.5) and incubating with culture supernatants of hybridoma clones, the HRP-conjugated horse anti-mouse IgG antibody (Cat. No. 7076S, Cell Signaling Technology) and tetramethylbenzidine (TMB) (Cat. No. PA107-01, TianGen, Beijing, China) were used to detect binding signals by a plate reader (PHREAstar, BMG Labtech, Germany) as light absorbance at 450 nm. The ELISA-positive clones were further verified by fluorescence-activated cell sorting (FACS). PD-L1 expression cells, HEK293/PD-L1 (10⁵ cells/well), were incubated with supernatants from hybridoma clones in V-bottom 96-well plates (Cat. No. 3897, Corning). The cell surface bound PD-L1 antibodies were detected with Dylight 649-conjugated goat anti-mouse IgG antibody (Cat. No. 405312, Biolegend, San Diego, Calif., USA) and cell fluorescence was monitored in a Guava EasyCyte 8HT flow cytometer (Millipore, USA).
(§4) The binding activities of the purified monoclonal antibodies were evaluated in ELISA and FACS assays as described in previous sections. The dose-dependent binding curves in ELISA and FACS were used to compare mAb potency.

[17] = target: T1, human PD-L1, full length, expressed on …; assay: FACS on HEK293/PD-L1 cells
Procedure: as §3, §4

[18] = target: T1, human PD-L1, full length, expressed on …; assay: FACS competition with biotin-CD80/Fc on HEK293/PD-L1 cells; remark: listed apart in the source

T1 sequence (Q9NZQ7 19-290 limits assumed): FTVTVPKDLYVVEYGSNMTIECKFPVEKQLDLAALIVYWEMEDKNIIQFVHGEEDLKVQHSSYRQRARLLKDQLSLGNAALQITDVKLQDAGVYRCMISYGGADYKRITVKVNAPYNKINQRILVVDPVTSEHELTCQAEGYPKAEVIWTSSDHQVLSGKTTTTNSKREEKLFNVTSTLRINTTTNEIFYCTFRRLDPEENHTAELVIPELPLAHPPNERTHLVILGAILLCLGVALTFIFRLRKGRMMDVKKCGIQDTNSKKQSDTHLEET

B3: hu333-2B Fab (Fab, V domains shown)
VH: EVQLVESGGGLVQPGGSLRLSCAVSGFSLTSYGVHWVRQAPGKGLEWVAVIWAGGSTNYVDSVKGRFTISKDNAKNSVYLQMNSLRAEDTAVYYCAKPYGNSAMDYWGQGTLVTVSS
VL: DIQMTQSPSTLSASVGDRVTITCKASQDVGIVVAWYQQKPGKAPKLLIYWASIRHTGVPSRFSGSGSGTEFTLTISSLQPDDFATYYCQQYSNYPLYTFGQGTKLEIK
notes: Human Fab format, His-tagged; constant parts not restated (as for hu333-1A)
IL-2 release in HuT78/P3Z: IC50 [10]: 0.011 µg/mL
IL-2 release in HuT78/PD-1: EC50 [10]: 0.054 µg/mL
IC50 [11]: 0.062 µg/mL
IC50 [12]: 0.055 µg/mL
Kd (human PD-L1-ECD/His [13]): 1.54 pM
koff (human PD-L1-ECD/His [13]): 2.09e-06 s⁻¹
kon (human PD-L1-ECD/His [13]): 1.36e+06 M⁻¹ s⁻¹

B4: Murine mAb333 (antibody, V domains shown)
VH: QVQLKESGPGLVAPSQSLSITCTVSGFSLTSYGVHWVRQPPGKGLEWLGVIWAGGSTNYNSALMSRLSISKDNSKSQVVLKMNSLQTDDTAMYYCAKPYGNSAMDYWGQGTSVTVSS
VL: DILMTQSHKFMSTSVGDTVSITCKASQDVGIVVAWYQQKPGQSPKLLIYWASIRHTGVPDRFTGSGSGTDFTLTISNVQSEDLADYFCQQYSNYPLYTFGGGTKLEIK
notes: Murine hybridoma mAb; also called mu333; Mu333
IL-2 release in HuT78/PD-1 cells co-cultured with HEK293/OS8/PD-L1 cells: EC50 [14]: 0.092 µg/mL
Inhibition of IL-2 secretion in HuT78/P3Z cells co-cultured with HEK293/PD-L1 cells: IC50 [15]: 0.021 µg/mL
EC50 (human PD-L1-ECD/His [16]): 0.036 µg/mL
EC50 [17]: 0.099 µg/mL
IC50 [11]: 0.463 µg/mL
IC50 [18]: 0.052 µg/mL

Continued, values first:

IL-2 release in HuT78/P3Z: IC50 [1]: 0.014 µg/mL
IL-2 release in HuT78/P3Z: Max inhibition [1]: 100%
IL-2 release in HuT78/PD-1: EC50 [1]: 0.057 µg/mL
IL-2 release in HuT78/PD-1: Top line [1]: 3020 pg/mL
IC50 [2]: 0.064 µg/mL
Max inhibition [2]: 99%
IC50 [3]: 0.071 µg/mL
Max inhibition [3]: 100%
Kd (human PD-L1-ECD/His [4]): 34.9 pM
koff (human PD-L1-ECD/His [4]): 4.61e-05 s⁻¹
kon (human PD-L1-ECD/His [4]): 1.32e+06 M⁻¹ s⁻¹
B1: hu333-3H2 Fab (Fab, V domains shown)
VH: EVQLVESGGGLVQPGGSLRLSCAVSGFSLTSYGVHWVRQAPGKGLEWVAVIWAGGSTNYADSVKGRFTISKDTSKNTVYLQMNSLRAEDTAVYYCAKPYGNSAMDYWGQGTLVTVSS
VL: DIQMTQSPSSLSASVGDRVTITCKASQDVGIVVAWYQQKPGKAPKLLIYWASIRHTGVPSRFSGSGSGTEFTLTISSLQPDDFATYYCQQYSNYPLYTFGQGTKVEIK
notes: Human Fab format; constant parts not restated

IL-2 release in HuT78/P3Z: IC50 [5]: 0.005 µg/mL
IL-2 release in HuT78/PD-1: EC50 [5]: 0.05 µg/mL
Kd (human PD-L1-ECD/His [6]): 2.65 pM
koff (human PD-L1-ECD/His [6]): 1.03e-05 s⁻¹
kon (human PD-L1-ECD/His [6]): 3.88e+06 M⁻¹ s⁻¹
Kd [7]: 2.91 pM
koff [7]: 9.3e-06 s⁻¹
kon [7]: 3.19e+06 M⁻¹ s⁻¹
IC50 [8]: 0.045 µg/mL
IC50 [9]: 0.05 µg/mL
Kd (human PD-L1-ECD/His [4]): 2.65 pM
koff (human PD-L1-ECD/His [4]): 1.03e-05 s⁻¹
kon (human PD-L1-ECD/His [4]): 3.88e+06 M⁻¹ s⁻¹
B2: hu333-4A2 Fab (Fab, V domains shown)
VH: EVQLVESGGGLVQPGGSLRLSCAVSGFSLTSYGVHWVRQAPGKGLEWVAVIWAGGSTNYVDSVKGRFTISKDNAKNTVYLQMNSLRAEDTAVYYCAKPYGTSAMDYWGQGTLVTVSS
VL: DIQMTQSPSSLSASVGDRVTITCKASQDVGIVVAWYQQKPGKAPKLLIYWASIRHTGVPSRFSGSGSGTEFTLTISSLQPDDFATYYCQQYSNYPLYTFGQGTKVEIK
notes: Human IgG1 Fab format: Vh fused to human IgG1-CH1 with C-terminal His6 tag, Vk fused to the constant region of kappa chain
